Positions count from the first letter of the chain named. Names and notes keep the numbering of the source.
B1: rabbit IgG Fc-hVEGF (human VEGF165) fusion protein, wild type, P15692-4 G88A (protein)
chain: APMAEGGGQNHHEVVKFMDVYQRSYCHPIETLVDIFQEYPDEIEYIFKPSCVPLMRCGGCCNDEGLECVPTEESNITMQIMRIKPHQAQHIGEMSFLQHNKCECRPKKDRARQENPCGPCSERRKHLFVQDPQTCKCSCKNTDSRCKARQLELNERTCRCDKPRR
B2: rabbit IgG Fc-hVEGF (human VEGF165) fusion protein, wild type, P15692-4 I46A (protein)
chain: B1 chain with I46A, A88G

Target: humanized EBV321
Assay: ELISA
Conditions: chain shown with the change; point at the highest antibody concentration, about 13.3 nM (read from x axis); VEGF captured on ELISA plate; parent: est. 0.66; read off a plot

Binder | response
B1 | 0.73 OD (405nm)
B2 | 0.7 OD (405nm)

From article PMC2816707
